Assays:
[1] = target: HLA-B*07:02; assay: IEDB peptide-MHC binding, purified MHC/competitive/fluorescence; ≥ and ≤ were set here for values at or beyond the usual limits of such assays
[2] = target: HLA-B*40:01; assay: IEDB peptide-MHC binding, purified MHC/competitive/fluorescence; filed as Kd, often an IC50 or EC50 that approximates it; ≥ and ≤ were set here for values at or beyond the usual limits of such assays
[3] = target: HLA-A*11:01; assay: IEDB peptide-MHC binding, purified MHC/competitive/fluorescence; ≥ and ≤ were set here for values at or beyond the usual limits of such assays; conditions: source organism: Sudan ebolavirus
[4] = target: HLA-A*03:01; assay: as above; conditions: source organism: Sudan ebolavirus
[5] = target: HLA-A*01:01; assay: as above
[6] = target: HLA-B*58:01; assay: IEDB peptide-MHC binding, purified MHC/competitive/fluorescence; filed as Kd, often an IC50 or EC50 that approximates it; ≥ and ≤ were set here for values at or beyond the usual limits of such assays
[7] = target: HLA-C*08:02; assay: IEDB peptide-MHC binding, purified MHC/direct/fluorescence; filed as Kd, often an IC50 or EC50 that approximates it; ≥ and ≤ were set here for values at or beyond the usual limits of such assays
[8] = target: HLA-A*01:01; assay: IEDB peptide-MHC binding, purified MHC/competitive/fluorescence; filed as Kd, often an IC50 or EC50 that approximates it; ≥ and ≤ were set here for values at or beyond the usual limits of such assays
[9] = target: HLA-B*35:01; assay: as above
[10] = target: HLA-C*14:02; assay: IEDB peptide-MHC binding, purified MHC/direct/fluorescence; filed as Kd, often an IC50 or EC50 that approximates it; ≥ and ≤ were set here for values at or beyond the usual limits of such assays
[11] = target: HLA-B*07:02; assay: IEDB peptide-MHC binding, purified MHC/competitive/fluorescence; filed as Kd, often an IC50 or EC50 that approximates it; ≥ and ≤ were set here for values at or beyond the usual limits of such assays; conditions: source organism: Yersinia pestis Antiqua
[12] = target: HLA-B*15:01; assay: as above
[13] = target: HLA-A*03:01; assay: as above; conditions: source organism: Escherichia coli str. K-12 substr. MG1655
[14] = target: HLA-A*02:01; assay: IEDB peptide-MHC binding, purified MHC/competitive/fluorescence; ≥ and ≤ were set here for values at or beyond the usual limits of such assays; conditions: source organism: Zaire ebolavirus
[15] = target: HLA-B*08:01; assay: IEDB peptide-MHC binding, purified MHC/competitive/fluorescence; filed as Kd, often an IC50 or EC50 that approximates it; ≥ and ≤ were set here for values at or beyond the usual limits of such assays; conditions: source organism: Escherichia coli
[16] = target: HLA-A*29:02; assay: IEDB peptide-MHC binding, purified MHC/direct/fluorescence; filed as Kd, often an IC50 or EC50 that approximates it; ≥ and ≤ were set here for values at or beyond the usual limits of such assays; conditions: source organism: Mycobacterium tuberculosis
[17] = target: HLA-B*18:01; assay: as above
[18] = target: HLA-A*69:01; assay: as above; conditions: source organism: Mycobacterium tuberculosis
[19] = target: HLA-B*27:05; assay: as above; conditions: source organism: Mycobacterium tuberculosis
[20] = target: HLA-B*44:02; assay: as above; conditions: source organism: Mycobacterium tuberculosis
[21] = target: HLA-A*11:01; assay: as above; conditions: source organism: Mycobacterium tuberculosis
[22] = target: HLA-A*02:01; assay: as above; conditions: source organism: Mycobacterium tuberculosis
[23] = target: HLA-B*57:01; assay: as above; conditions: source organism: Mycobacterium tuberculosis
[24] = target: HLA-A*31:01; assay: as above; conditions: source organism: Mycobacterium tuberculosis
[25] = target: HLA-A*03:01; assay: as above; conditions: source organism: Mycobacterium tuberculosis
[26] = target: HLA-B*40:01; assay: as above
[27] = target: HLA-B*58:01; assay: as above; conditions: source organism: Mycobacterium tuberculosis
[28] = target: HLA-A*01:01; assay: as above; conditions: source organism: Mycobacterium tuberculosis
[29] = target: HLA-B*46:01; assay: as above; conditions: source organism: Mycobacterium tuberculosis
[30] = target: HLA-B*08:03; assay: as above; conditions: source organism: Mycobacterium tuberculosis str. Haarlem
[31] = target: HLA-C*05:01; assay: as above
[32] = target: HLA-C*12:03; assay: as above; conditions: source organism: Toxoplasma gondii RH
[33] = target: HLA-A*68:02; assay: IEDB peptide-MHC binding, purified MHC/competitive/fluorescence; filed as Kd, often an IC50 or EC50 that approximates it; ≥ and ≤ were set here for values at or beyond the usual limits of such assays; conditions: source organism: Toxoplasma gondii RH
[34] = target: HLA-A*26:01; assay: as above; conditions: source organism: Escherichia coli str. K-12 substr. MG1655
[35] = target: HLA-C*03:03; assay: IEDB peptide-MHC binding, purified MHC/direct/fluorescence; filed as Kd, often an IC50 or EC50 that approximates it; ≥ and ≤ were set here for values at or beyond the usual limits of such assays; conditions: source organism: Mycobacterium tuberculosis C
[36] = target: HLA-B*54:01; assay: IEDB peptide-MHC binding, purified MHC/competitive/radioactivity; filed as Kd, often an IC50 or EC50 that approximates it; ≥ and ≤ were set here for values at or beyond the usual limits of such assays; conditions: source organism: SARS coronavirus Tor2
[37] = target: HLA-B*53:01; assay: as above; conditions: source organism: SARS coronavirus Tor2
[38] = target: HLA-B*51:01; assay: as above; conditions: source organism: SARS coronavirus Tor2
[39] = target: HLA-B*07:02; assay: as above; conditions: source organism: SARS coronavirus Tor2
[40] = target: HLA-B*35:01; assay: as above; conditions: source organism: SARS coronavirus Tor2
[41] = source organism: Salmonella enterica subsp. enterica serovar Typhi
[42] = source organism: Zaire ebolavirus
[43] = source organism: Escherichia coli str. K-12 substr. MG1655
[44] = source organism: Mycobacterium tuberculosis
[45] = source organism: Alto Paraguay hantavirus
[46] = source organism: Shigella flexneri 5 str. 8401

IPNSLHSLS
IC50 ([1]; source organism: Vaccinia virus Copenhagen): ≥ 136000 nM

IEVTNATEL
Kd ([2]; source organism: Influenza A virus): 5.6 nM

STDIPSATK
IC50 [3]: 1470 nM
IC50 [4]: 65600 nM
IC50 ([5]; source organism: Sudan ebolavirus): ≥ 76400 nM

MENMLDLLM
Kd ([2]; source organism: Yersinia frederiksenii ATCC 33641): 10.2 nM

ISASLAALF
Kd ([6]; source organism: Bacillus anthracis str. A0488): 1.7 nM

FAADKDSLY
Kd ([7]; source organism: Salmonella enterica subsp. enterica serovar Typhi str. CT18): ≥ 20000 nM
Kd [8, 41]: 313 nM
Kd [9, 41]: 0.2 nM

AKRYEKSAM
Kd ([10]; source organism: Yersinia pestis Antiqua): 1050 nM
Kd [11]: ≥ 20000 nM

VPSATKRWG
IC50 [1, 42]: 64600 nM

KVGITGFCY
Kd [12, 43]: 247 nM
Kd [13]: 2200 nM
Kd [6, 43]: 418 nM

ASENSSAMV
IC50 [14]: ≥ 147000 nM
IC50 [5, 42]: 43500 nM

HENARLRAL
Kd ([2]; source organism: Escherichia coli): 4.8 nM
Kd [15]: 175 nM

APPPQRAAM
Kd ([10]; source organism: Mycobacterium tuberculosis variant bovis BCG str. Pasteur 1173P2): 61 nM

WMRGRGRAL
Kd [16]: ≥ 20000 nM
Kd [17, 44]: ≥ 20000 nM
Kd [18]: ≥ 20000 nM
Kd [19]: ≥ 20000 nM
Kd [20]: ≥ 20000 nM
Kd [21]: ≥ 20000 nM
Kd [22]: ≥ 20000 nM
Kd [23]: ≥ 20000 nM
Kd [24]: ≥ 20000 nM
Kd [25]: ≥ 20000 nM
Kd [26, 44]: ≥ 20000 nM
Kd [27]: ≥ 20000 nM
Kd [28]: ≥ 20000 nM
Kd [29]: ≥ 20000 nM
Kd [30]: ≥ 20000 nM

KEISNQEPL
Kd [17, 45]: 357 nM
Kd [26, 45]: 3.2 nM
Kd ([10]; source organism: Orthohantavirus dobravaense): 2070 nM

FLDPHPYYV
Kd ([31]; source organism: Toxoplasma gondii RH): ≤ 1 nM
Kd [32]: 47 nM
Kd [33]: 56.3 nM

GELESAIGL
Kd [12, 46]: ≥ 20000 nM
Kd [2, 46]: 2.8 nM

RINEGWPAY
Kd [12, 43]: 84 nM
Kd [13]: 42.2 nM
Kd [6, 43]: ≥ 20000 nM
Kd [34]: ≥ 20000 nM
Kd [8, 43]: 481 nM
Kd [9, 43]: 59.2 nM

YLPDPTVGV
Kd ([7]; source organism: Mycobacterium tuberculosis C): ≥ 20000 nM
Kd [35]: ≥ 20000 nM

APYMVGDVI
Kd ([31]; source organism: SARS-CoV1): ≥ 20000 nM
Kd [36]: ≥ 27300 nM
Kd [37]: 3580 nM
Kd [38]: 80 nM
Kd [39]: 139 nM
Kd [40]: 11000 nM

Source: the Immune Epitope Database (IEDB)
